In US20170137467A1 (CHROMOTEK, published 2017):

Legend:
Test in all cases: peptide library pulldown on immobilized Nb, LC-MS of supernatant; ratio vs GFP-Nb control (1 = not captured, 0 = captured)
[1] = target: T1, BC2T S8(I/L) library peptide, version 1 (N-terminal acetyl, C-terminal amide)
T1 construct: Ile and Leu versions are isobaric; two versions resolved but not assigned; also called BC2TS8X: I/L1
In short: (§1)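 Unbound peptide left in supernatant after 1 h pulldown in PBS/0.01% CHAPS measured by reversed-phase LC-MS (8–30% eluent B gradient, 20 min).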

[2] = target: T2, BC2T S8(I/L) library peptide, version 2 (N-terminal acetyl, C-terminal amide)
T2 construct: Ile and Leu versions are isobaric; two versions resolved but not assigned; also called BC2TS8X: I/L2
In short: as §1

BC2T S8F library peptide = target: T3, BC2T S8F library peptide (human)
T3 construct: also called BC2TS8X: F
T3 peptide: Ac-PDRKAAVFHWQQ-NH2
In short: as §1

BC2T S8R library peptide = target: T4, BC2T S8R library peptide (human)
T4 construct: also called BC2TS8X: R
T4 peptide: Ac-PDRKAAVRHWQQ-NH2
In short: as §1

BC2T S8H library peptide = target: T5, BC2T S8H library peptide (human)
T5 construct: also called BC2TS8X: H
T5 peptide: Ac-PDRKAAVHHWQQ-NH2
In short: as §1

[3] = target: T6, BC2T H9(I/L) library peptide, version 1 (N-terminal acetyl, C-terminal amide)
T6 construct: Ile and Leu versions are isobaric; two versions resolved but not assigned; also called I/L1
In short: as §1

BC2T H9P library peptide = target: T7, BC2T H9P library peptide (human)
T7 peptide: Ac-PDRKAAVSPWQQ-NH2
In short: as §1

BC2T H9N library peptide = target: T8, BC2T H9N library peptide (human)
T8 peptide: Ac-PDRKAAVSNWQQ-NH2
In short: as §1

BC2T H9Y library peptide = target: T9, BC2T H9Y library peptide (human)
T9 peptide: Ac-PDRKAAVSYWQQ-NH2
In short: as §1

BC2T H9K library peptide = target: T10, BC2T H9K library peptide (human)
T10 peptide: Ac-PDRKAAVSKWQQ-NH2
In short: as §1

[4] = target: T11, BC2T W10(I/L) library peptide, version 2 (N-terminal acetyl, C-terminal amide)
T11 construct: Ile and Leu versions are isobaric; two versions resolved but not assigned; also called BC2TW10X: I/L2
In short: as §1

[5] = target: T12, BC2T W10Q library peptide (human)
T12 construct: also called BC2TW10X: Q
T12 peptide: Ac-PDRKAAVSHQQQ-NH2
In short: as §1

[6] = target: T13, BC2T Q11V library peptide (human)
T13 peptide: Ac-PDRKAAVSHWVQ-NH2
In short: as §1

[7] = target: T14, BC2T Q11P library peptide (human)
T14 peptide: Ac-PDRKAAVSHWPQ-NH2
In short: as §1

[8] = target: T15, BC2T Q11T library peptide (human)
T15 peptide: Ac-PDRKAAVSHWTQ-NH2
In short: as §1

[9] = target: T16, BC2T Q12V library peptide (human)
T16 peptide: Ac-PDRKAAVSHWQV-NH2
In short: as §1

[10] = target: T17, BC2T Q12W library peptide (human)
T17 peptide: Ac-PDRKAAVSHWQW-NH2
In short: as §1

[11] = target: T18, BC2T Q12S library peptide (human)
T18 peptide: Ac-PDRKAAVSHWQS-NH2
In short: as §1

[12] = target: T19, BC2T Q12T library peptide (human)
T19 peptide: Ac-PDRKAAVSHWQT-NH2
In short: as §1

B1: BC2-Nb(R106E) (VHH)
VHH: QVQLVESGGGLVQPGGSLTLSCTASGFTLDHYDIGWFRQAPGKEREGVSCINNSDDDTYYADSVKGRFTIFMDNAKDTVYLQMNSLKPEDTAIYYCAEARGCKRGEYEYDFWGQGTQVTVSS
notes: Headlock mutant; immobilized on beads in the library pulldown
With B1 the ratio [1] was 0.5, the ratio [2] was 0.9 and the ratio (BC2T S8F library peptide) was 0.9. For the same binder, the ratio (BC2T S8R library peptide) was 0.9, the ratio (BC2T S8H library peptide) was 0.9 and the ratio [3] was 0.4. It also gave a ratio (BC2T H9P library peptide) of 0.9, a ratio (BC2T H9N library peptide) of 0.2 and a ratio (BC2T H9Y library peptide) of 0.1. The ratio (BC2T H9K library peptide) was 0.2, the ratio [4] was 1 and the ratio [5] was 1.2. The ratio [6] was 0.2, the ratio [7] was 0.9 and the ratio [8] was 0.2. For the same binder, the ratio [9] was 0.1, the ratio [10] was 0.2 and the ratio [11] was 0.1. The ratio [12] was 0.1.
